In patent publication US20240209086A1 (PETMEDIX, published 2024):

These binders were tested against canine CD3 on canine T cells (canine PBMC) (canine, UniProt P27597 22-202) (assay: cell-based or functional assay).
Sequence of canine CD3 on canine T cells (canine PBMC) (P27597 22-202 limits assumed, chain 1 of 3): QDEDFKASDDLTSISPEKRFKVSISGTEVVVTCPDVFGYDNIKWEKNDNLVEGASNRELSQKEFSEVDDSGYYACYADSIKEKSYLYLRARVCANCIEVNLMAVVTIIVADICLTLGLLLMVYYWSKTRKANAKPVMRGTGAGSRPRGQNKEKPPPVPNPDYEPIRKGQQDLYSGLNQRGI
Sequence of canine CD3 on canine T cells (canine PBMC) (chain, as listed by the source limits assumed, chain 2 of 3): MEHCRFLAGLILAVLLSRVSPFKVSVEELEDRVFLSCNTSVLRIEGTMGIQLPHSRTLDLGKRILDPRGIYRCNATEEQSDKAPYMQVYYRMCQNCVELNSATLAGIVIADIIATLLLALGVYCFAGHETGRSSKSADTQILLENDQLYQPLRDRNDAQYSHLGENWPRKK
Sequence of canine CD3 on canine T cells (canine PBMC) (chain, as listed by the source limits assumed, chain 3 of 3): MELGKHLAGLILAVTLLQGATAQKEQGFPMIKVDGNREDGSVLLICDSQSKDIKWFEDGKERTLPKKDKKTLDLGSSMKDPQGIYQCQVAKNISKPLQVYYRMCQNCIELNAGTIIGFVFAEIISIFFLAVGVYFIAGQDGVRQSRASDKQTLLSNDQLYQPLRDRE

Binder | CD25 Activation, Day 6, IS | CD25 Activation, Day 6, PB | CD25 Activation, Day 9, IS | CD25 Activation, Day 9, PB | IFNy Concentration pg/ml, Day 6, IS | IFNy Concentration pg/ml, Day 9, IS | IFNy Concentration pg/ml, Day 9, PB | Ki67 Proliferation, Day 6, IS | Ki67 Proliferation, Day 6, PB | Ki67 Proliferation, Day 9, IS
PMX194 (monospecific anti-canine CD3, canine IgG-B effector function deficient Fc) (antibody, V domains shown) VH: EVQLVESGGDLVKPGGSLRLSCVASGFTFSNYHMSWVRQAPGKGLQWVAYSNSGRMSTDYADAVKGRFTISRDNAKNTLYLQMNSLRPEDTAVYYCATVIYGLFDYWGQGTLVTVSS VL: DIVMTQTPLSLSVSPGEPASISCKASQSLLYSNGNTYLYWFRQKPGQSPQRLIYKVSKRDSGVPDRFSGSGSGTDFTLRIRRVEADDAGVYYCGQGTQDPYTFSQGTKLEIK | 13 | 17.3 | 7.96 | 17.1 | 133 pg/mL | 170 pg/mL | 568 pg/mL | 1.46 | 0.21 | 1.49
PMX180 (monospecific anti-canine CD3, canine IgG-B effector function deficient Fc) (antibody, V domains shown) VH: ELTLQESGPGLVKPSQTLSLTCVVSGGSVTSNYYWNWIRQRPGRGLEWMGYWTGSTNYNPAFQGRISITADTAKKQFSLQLRSMTIEDTAVYYCARRGIPIFFDYWGQGTLVTVSS VL: SYVLTQLPSKNVTLKQPAHITCGGDNIGSKSVHWYQQKLGQAPVLIIYYDSSRPTGIPERFSGANSGNTATLTISGALAEDEADYYCQVWDSSASVFGGGTHLTVL | 10.7 | 8.6 | 13.9 | 17 | 55.5 pg/mL | 318 pg/mL | 773 pg/mL | 1.2 | 0.21 | 1.77
PMX195 (monospecific anti-canine CD3, canine IgG-B effector function deficient Fc) (antibody, V domains shown) VH: EVQLVESGGDLVKPAGSLRLSCMASGFTFSSYSMSWVRQAPEKGLQLVAGINGDGSTTYYTDAVKGRFTISRDNAKNTVYLQMNNLRVEDSAMYYCAKGAGTGDYWGQGTLVTVSS VL: SYELTQPPSLNVTLRETAHITCGGDRIGSRYVQWIQQNPGQAPVVVIYKDSNRPTGIPERFSGANSGNTATLTISGALAEDEADYYCQVGDSGNWVFGGGTQLTVL | 10.4 | 16.8 | 7.58 | 14.7 | 63.9 pg/mL | 208 pg/mL | 627 pg/mL | 2.94 | 0.43 | 2.33
PMX193 (monospecific anti-canine CD3, canine IgG-B effector function deficient Fc) (antibody, V domains shown) VH: EVQLVESGGDLVKPGGSLRLSCVASGFTFSTYHMSWVRQAPGKGLQWVAYISSGGSRTNYADAVKGRFTISRDNAKNTLYLQMNSLRAEDAAVFYCARHYGSSLFDYWGQGTLVTVSS VL: DIVMTQTPLSLSVSPGEPASISCKASQSLLHINGNTYLYWFRQKPGQSPQRLIYKVSNRDPGVPDRFSGSGSGTDFTLRISRVEADDAGVYYCGQGIQDPTFGKGTHLEIK | 8.3 | 11.1 | 12.6 | 16.1 | 52.6 pg/mL | 544 pg/mL | 401 pg/mL | 0.64 | 0.11 | 1.53

Further lines, results first:

CD25 Activation, Day 6, IS | CD25 Activation, Day 6, PB | CD25 Activation, Day 9, IS | CD25 Activation, Day 9, PB | IFNy Concentration pg/ml, Day 6, IS | IFNy Concentration pg/ml, Day 9, IS | IFNy Concentration pg/ml, Day 9, PB | Ki67 Proliferation, Day 6, IS | Ki67 Proliferation, Day 6, PB | Ki67 Proliferation, Day 9, IS | Binder
10.5 | 23.3 | 9.24 | 14 | 58 pg/mL | 307 pg/mL | 2340 pg/mL | 1.43 | 0.67 | 3.21 | PMX197 (monospecific anti-canine CD3, canine IgG-B effector function deficient Fc) (antibody, V domains shown) VH: ELTLQESGPGLVKPSQTLSLTCLVSGGSVTRSYYWNWIRQRPGRGLEWMGYWTGSTNYNPAFQGRISIIPDTAKNQFSLQLTSMTTDDTAIYFCAREGGRTLGAFADWGQGTLVTVSS VL: SYVLTQLPSKNVTLKQPAHITCGGDKIGSKNVHWYQQKLGQAPVLIIYYDSSRPTGIPERFSGANSGNTATLTISGALAEDEADYYCQVWDSSAKASVFGGGTHLTVL
10.6 | 5.68 | 9.09 | 23.9 | 33.1 pg/mL | 118 pg/mL | 1690 pg/mL | 2.15 | 0.55 | 2.69 | PMX181 (monospecific anti-canine CD3, canine IgG-B effector function deficient Fc) (antibody, V domains shown) VH: ELTLQESGPGLVKPSQTLSLTCIVSGGSVTNNYYWTWIRQRPGRGLEWMGYWTGFTNYNPAFQGRISIIANTAKKQLSLQLSSLTTEDTAVYYCARRAIPTYFDYWGQGTLVTVSS VL: SYVLTQLPSKNVTLKQPAHITCGGDNIGSRSVHWYQQKLGQAPVLIIYYDSSRPTGIPERFSGANSGNTATLTISGALAEDEADYYCQVWDSSASVFGGGTHLTVL

Same assay, conditions: not given

Binder | Ki67 Proliferation, Day 9, PB
PMX194 (monospecific anti-canine CD3, canine IgG-B effector function deficient Fc) (antibody, V domains shown) VH: EVQLVESGGDLVKPGGSLRLSCVASGFTFSNYHMSWVRQAPGKGLQWVAYSNSGRMSTDYADAVKGRFTISRDNAKNTLYLQMNSLRPEDTAVYYCATVIYGLFDYWGQGTLVTVSS VL: DIVMTQTPLSLSVSPGEPASISCKASQSLLYSNGNTYLYWFRQKPGQSPQRLIYKVSKRDSGVPDRFSGSGSGTDFTLRIRRVEADDAGVYYCGQGTQDPYTFSQGTKLEIK | 1.11
PMX180 (monospecific anti-canine CD3, canine IgG-B effector function deficient Fc) (antibody, V domains shown) VH: ELTLQESGPGLVKPSQTLSLTCVVSGGSVTSNYYWNWIRQRPGRGLEWMGYWTGSTNYNPAFQGRISITADTAKKQFSLQLRSMTIEDTAVYYCARRGIPIFFDYWGQGTLVTVSS VL: SYVLTQLPSKNVTLKQPAHITCGGDNIGSKSVHWYQQKLGQAPVLIIYYDSSRPTGIPERFSGANSGNTATLTISGALAEDEADYYCQVWDSSASVFGGGTHLTVL | 0.58
PMX195 (monospecific anti-canine CD3, canine IgG-B effector function deficient Fc) (antibody, V domains shown) VH: EVQLVESGGDLVKPAGSLRLSCMASGFTFSSYSMSWVRQAPEKGLQLVAGINGDGSTTYYTDAVKGRFTISRDNAKNTVYLQMNNLRVEDSAMYYCAKGAGTGDYWGQGTLVTVSS VL: SYELTQPPSLNVTLRETAHITCGGDRIGSRYVQWIQQNPGQAPVVVIYKDSNRPTGIPERFSGANSGNTATLTISGALAEDEADYYCQVGDSGNWVFGGGTQLTVL | 0.67
PMX193 (monospecific anti-canine CD3, canine IgG-B effector function deficient Fc) (antibody, V domains shown) VH: EVQLVESGGDLVKPGGSLRLSCVASGFTFSTYHMSWVRQAPGKGLQWVAYISSGGSRTNYADAVKGRFTISRDNAKNTLYLQMNSLRAEDAAVFYCARHYGSSLFDYWGQGTLVTVSS VL: DIVMTQTPLSLSVSPGEPASISCKASQSLLHINGNTYLYWFRQKPGQSPQRLIYKVSNRDPGVPDRFSGSGSGTDFTLRISRVEADDAGVYYCGQGIQDPTFGKGTHLEIK | 0.18

The remaining lines, values ahead:

Ki67 Proliferation, Day 9, PB | Binder
0 | PMX197 (monospecific anti-canine CD3, canine IgG-B effector function deficient Fc) (antibody, V domains shown) VH: ELTLQESGPGLVKPSQTLSLTCLVSGGSVTRSYYWNWIRQRPGRGLEWMGYWTGSTNYNPAFQGRISIIPDTAKNQFSLQLTSMTTDDTAIYFCAREGGRTLGAFADWGQGTLVTVSS VL: SYVLTQLPSKNVTLKQPAHITCGGDKIGSKNVHWYQQKLGQAPVLIIYYDSSRPTGIPERFSGANSGNTATLTISGALAEDEADYYCQVWDSSAKASVFGGGTHLTVL
0.7 | PMX181 (monospecific anti-canine CD3, canine IgG-B effector function deficient Fc) (antibody, V domains shown) VH: ELTLQESGPGLVKPSQTLSLTCIVSGGSVTNNYYWTWIRQRPGRGLEWMGYWTGFTNYNPAFQGRISIIANTAKKQLSLQLSSLTTEDTAVYYCARRAIPTYFDYWGQGTLVTVSS VL: SYVLTQLPSKNVTLKQPAHITCGGDNIGSRSVHWYQQKLGQAPVLIIYYDSSRPTGIPERFSGANSGNTATLTISGALAEDEADYYCQVWDSSASVFGGGTHLTVL
